Assay results reported in patent US8865654B2, “Eye drops” (Santen Pharmaceutical Co., Ltd., priority 2009, dated 2014).
No end group written: not given here.

Assay: Stability test of eye drop (residual ratio by HPLC after storage at 40° C.)
Type: physicochemical
Settings: eye drop SSSR acetate 0.003% + FGLM hydrochloride 0.05% (w/v)
Experimental: Each sample (100 mL, eye drop) containing the SSSR acetate at 0.003% (w/v) and the FGLM hydrochloride at 0.05% (w/v) was prepared at a pH in a range of 2.5 to 7.0 and stored at 40° C. The concentrations of the SSSR and the FGLM were measured by the HPLC method after 2 months storage, 3 months storage, and 6 months storage, and the residual ratios of the SSSR and the FGLM were determined, respectively.

Phe-Gly-Leu-Met-NH2 (FGLM-NH2) [tetrapeptide at the C-terminal of Substance P, used as hydrochloride]
Residual ratio of FGLM (pH 2.5, 40° C., 2 months): 79%
Residual ratio of FGLM (pH 2.5, 40° C., 3 months): 72%
Residual ratio of FGLM (pH 2.5, 40° C., 6 months): 54%
Residual ratio of FGLM (pH 3.0, 40° C., 2 months): 91%
Residual ratio of FGLM (pH 3.0, 40° C., 3 months): 89%
Residual ratio of FGLM (pH 3.0, 40° C., 6 months): 79%
Residual ratio of FGLM (pH 3.5, 40° C., 2 months): 95%
Residual ratio of FGLM (pH 3.5, 40° C., 3 months): 94%
Residual ratio of FGLM (pH 3.5, 40° C., 6 months): 90%
Residual ratio of FGLM (pH 4.0, 40° C., 2 months): 96%
Residual ratio of FGLM (pH 4.0, 40° C., 3 months): 96%
Residual ratio of FGLM (pH 4.0, 40° C., 6 months): 94%
Residual ratio of FGLM (pH 4.5, 40° C., 2 months): 97%
Residual ratio of FGLM (pH 4.5, 40° C., 3 months): 97%
Residual ratio of FGLM (pH 4.5, 40° C., 6 months): 96%
Residual ratio of FGLM (pH 5.0, 40° C., 2 months): 97%
Residual ratio of FGLM (pH 5.0, 40° C., 3 months): 97%
Residual ratio of FGLM (pH 5.0, 40° C., 6 months): 97%
Residual ratio of FGLM (pH 5.5, 40° C., 2 months): 97%
Residual ratio of FGLM (pH 5.5, 40° C., 3 months): 97%
Residual ratio of FGLM (pH 5.5, 40° C., 6 months): 96%
Residual ratio of FGLM (pH 6.0, 40° C., 2 months): 96%
Residual ratio of FGLM (pH 6.0, 40° C., 3 months): 96%
Residual ratio of FGLM (pH 6.0, 40° C., 6 months): 95%
Residual ratio of FGLM (pH 6.5, 40° C., 2 months): 95%
Residual ratio of FGLM (pH 6.5, 40° C., 3 months): 95%
Residual ratio of FGLM (pH 6.5, 40° C., 6 months): 93%
Residual ratio of FGLM (pH 7.0, 40° C., 2 months): 94%
Residual ratio of FGLM (pH 7.0, 40° C., 3 months): 93%
Residual ratio of FGLM (pH 7.0, 40° C., 6 months): 90%

Ser-Ser-Ser-Arg (SSSR; printed: Ser-Ser-Ser-Arg) [partial peptide of insulin-like growth factor I, used as acetate]
Residual ratio of SSSR (pH 2.5, 40° C., 2 months): 100%
Residual ratio of SSSR (pH 2.5, 40° C., 3 months): 100%
Residual ratio of SSSR (pH 2.5, 40° C., 6 months): 100%
Residual ratio of SSSR (pH 3.0, 40° C., 2 months): 99%
Residual ratio of SSSR (pH 3.0, 40° C., 3 months): 96%
Residual ratio of SSSR (pH 3.0, 40° C., 6 months): 98%
Residual ratio of SSSR (pH 3.5, 40° C., 2 months): 99%
Residual ratio of SSSR (pH 3.5, 40° C., 3 months): 96%
Residual ratio of SSSR (pH 3.5, 40° C., 6 months): 93%
Residual ratio of SSSR (pH 4.0, 40° C., 2 months): 98%
Residual ratio of SSSR (pH 4.0, 40° C., 3 months): 97%
Residual ratio of SSSR (pH 4.0, 40° C., 6 months): 92%
Residual ratio of SSSR (pH 4.5, 40° C., 2 months): 97%
Residual ratio of SSSR (pH 4.5, 40° C., 3 months): 97%
Residual ratio of SSSR (pH 4.5, 40° C., 6 months): 89%
Residual ratio of SSSR (pH 5.0, 40° C., 2 months): 97%
Residual ratio of SSSR (pH 5.0, 40° C., 3 months): 87%
Residual ratio of SSSR (pH 5.0, 40° C., 6 months): 81%
Residual ratio of SSSR (pH 5.5, 40° C., 2 months): 94%
Residual ratio of SSSR (pH 5.5, 40° C., 3 months): 86%
Residual ratio of SSSR (pH 5.5, 40° C., 6 months): 80%
Residual ratio of SSSR (pH 6.0, 40° C., 2 months): 90%
Residual ratio of SSSR (pH 6.0, 40° C., 3 months): 77%
Residual ratio of SSSR (pH 6.0, 40° C., 6 months): 68%
Residual ratio of SSSR (pH 6.5, 40° C., 2 months): 84%
Residual ratio of SSSR (pH 6.5, 40° C., 3 months): 67%
Residual ratio of SSSR (pH 6.5, 40° C., 6 months): 51%
Residual ratio of SSSR (pH 7.0, 40° C., 2 months): 70%
Residual ratio of SSSR (pH 7.0, 40° C., 3 months): 51%
Residual ratio of SSSR (pH 7.0, 40° C., 6 months): 35%
